One molecule from PMC3168509, “Insights into the Role of Yeast eIF2A in IRES-Mediated Translation” (PLoS ONE, 2011) can be followed below.

The test concerns the target T1, GST-eEF1A (full-length eEF1A/Tef1p fused to GST) (S. cerevisiae, UniProt P02994 1-458).
T1 construct: yeast eEF1A, TEF1 amplified by PCR from genomic DNA; also called GST-TEF1; full-length eEF1A fusion protein; not shown: GST, N-terminal, kept
T1 sequence (looked up): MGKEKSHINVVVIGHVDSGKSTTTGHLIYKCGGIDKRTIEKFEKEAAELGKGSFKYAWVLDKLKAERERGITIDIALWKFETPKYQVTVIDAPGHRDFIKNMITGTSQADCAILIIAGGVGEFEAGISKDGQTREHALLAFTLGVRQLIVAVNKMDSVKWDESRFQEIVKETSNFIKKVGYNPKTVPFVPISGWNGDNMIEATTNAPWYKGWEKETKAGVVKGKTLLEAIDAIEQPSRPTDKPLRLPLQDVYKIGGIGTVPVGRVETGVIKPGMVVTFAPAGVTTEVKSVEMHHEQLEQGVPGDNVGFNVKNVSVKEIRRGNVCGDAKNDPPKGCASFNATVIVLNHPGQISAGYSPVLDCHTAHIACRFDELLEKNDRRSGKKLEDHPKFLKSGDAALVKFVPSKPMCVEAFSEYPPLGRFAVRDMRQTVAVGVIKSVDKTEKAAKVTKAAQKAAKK
Kind of test: pull-down; full-length GST-eEF1A on glutathione-Sepharose with lysates of ΔeIF2A yeast carrying YCplac111-YP, grown 1 h without or with 6% ethanol; Western blot for HA, bands quantified with Image J against 8% input. The settings on record: one partner purified. (In western blotting, separated proteins are transferred to a membrane and probed.)

B1: HA-eIF2A (N-terminally HA-tagged eukaryotic initiation factor 2A expressed from YCplac111-YP) (natural protein, S. cerevisiae, UniProt P53235 1-642, looked up)
chain: MSSQFFLKTSQDIELFQSYPTFEQSNTNSKDFPVISSVLSPCGRFLALSTKENVKVFTGPCLDNVLLTMKLSDVYDLHFSPAGNYLSTWERASIQDPNHKNVKVWYLNKPFKKDCVSEDIVPAYEYQAKSQSGWFLQFSKLDNYGLRLFKHDLKIVKLSSANADNFDFQSPFAVLSDDETSQHFTTYLISPAEHPTICTFTPEKGGKPAQLIIWALSEGKITKKIASKTFFKADSCQLKWNPLGNAILCLAITDFDSSNKSYYGENTLYLLSFQGVNGTLGGNSVRVSLTTGPVHDFTWSPTSRQFGVIAGYMPATISFFDLRGNVVHSLPQQAKNTMLFSPSGHYILIAGFGNLQGSVEILDRLDKFKCVSKFDATNTSVCKWSPGGEFIMTATTSPRLRVDNGVKIWHVSGSLVFVKEFKELLKVDWRSPCNYKTLENKDEAFFENHIINNWEPLPDSTTSSLDPKISNKSELQIHSSVQEYISQHPSREASSNGNGSKAKAGGAYKPPHARRTGGGRIVPGVPPGAAKKTIPGLVPGMSANKDANTKNRRRRANKKSSETSPDSTPAPSAPASTNAPTNNKETSPEEKKIRSLLKKLRAIETLKERQAVGDKLEDTQVLKIQTEEKVLKDLEKLGWKDE
notes: yeast eukaryotic initiation factor 2A, encoded by YGR054w; the HA-tagged eIF2A coding region behind its natural promoter; the kind of modification is not known; also called HA-tagged eIF2A; YGR054w; source: BY4684 ΔeIF2A yeast transformed with YCplac111-YP (native promoter), in lysate; not shown: HA, N-terminal, kept
For B1, the “fold increase in interaction (6% ethanol against untreated cells)” value amounted to 2 fold.
